The values below come from patent publication US20260132208A1.

In assay [1] the target is human CCR8 (human) (UniProt P51685). Put plainly: cell-based or functional assay.
Assay [2] has the same target. Put plainly: flow cytometry on lymphocytes from ovarian cancer ascites, 1 µg antibody. A general note: A flow cytometer gives signals particle by particle.
Assay [3] has the same target. Put plainly: flow cytometry on lymphocytes from ovarian cancer ascites, 0.1 µg antibody.
Assay [4] has the same target. Briefly: flow cytometry on lymphocytes from ovarian cancer ascites, 0.5 µg antibody.
Assay [5] has the same target. Briefly: flow cytometry, hCCR8-transfected CHO-K1 cells.

In assay [1], “human CCL1 (from UniProt P22362 24-96) (ligand)” showed an EC80 of hCCL1, hCCR8 Gi2 BRET, HEK-293 in suspension of 6 nM and an EC80 of hCCL1, hCCR8 Gi2 BRET, adherent HEK-293 (protocol #4) of 0.6 nM.
As to Isotype ctrl (antibody), the values for the Positive cells in assay [2], in assay [3] and in assay [4] were 5.06%, 2.94% and 3.81%, respectively.
For “murine anti-human CCR8 monoclonal antibody L263G8”, the % positive cells in assay [5] was 86.5%. The MFI fold change to isotype ctrl in assay [5] turned out to be 19.8 fold. Also, the Positive cells in assay [2] is 8.64%; in assay [3] it was 9.5%; in assay [4], 9.86%.
